In US20220235117A1:

What was measured:
[1] = molecular target: hepatitis B virus surface antigen (HBsAg) (hepatitis B virus); assay: ELISA, commercial HBsAg plate, well held 30 min in PBS pH 6.0 after binding, GAH-HRP secondary antibody, OD(450/630)
[2] = molecular target: hepatitis B virus surface antigen (HBsAg) (hepatitis B virus); assay: SPR, Biacore 3000, HBsAg on CM5 chip, antibody as analyte, pH 7.4
[3] = molecular target: hepatitis B virus surface antigen (HBsAg) (hepatitis B virus); assay: ELISA, commercial HBsAg plate, well held 30 min in PBS pH 7.4 after binding, GAH-HRP secondary antibody, OD(450/630)
[4] = molecular target: hepatitis B virus surface antigen (HBsAg) (hepatitis B virus); assay: ELISA on commercial HBsAg plate, pH 7.4
[5] = molecular target: hepatitis B virus surface antigen (HBsAg) (hepatitis B virus); assay: ELISA on commercial HBsAg plate, ratio of EC50 at pH 6.0 to pH 7.4
[6] = molecular target: hepatitis B virus surface antigen (HBsAg) (hepatitis B virus); assay: ELISA on commercial HBsAg plate, pH 6.0

| Binder | EC50 (read off the curve) [1] [µg/mL] | Kd [2] [nM] | EC50 (read off the curve) [3] [µg/mL] | EC50 [4] [µg/mL] | EC50(pH 6.0)/EC50(pH 7.4) [5] | EC50 [6] [µg/mL] |
| --- | --- | --- | --- | --- | --- | --- |
| anti-HBV humanized antibody M1D (antibody, V domains shown) VH: QVQLQESGPGLVKPSETLSLTCTVSGGSITSNFWSWIRQPPGKGLEWIGYISGSGTYTDYNPSLKSRVTISVDTSKNQFSLKLSSVTAADTAVYYCARSHDYGSNDYAFDFWGQGTTVTVSS VL: DIQMTQSPSSLSASVGDRVTITCRATQDISSSLNWYQQKPGKAPKLLIYYANRLQSGVPSRFSGSGSGTDFTLTISSLQPEDFATYYCQQYHSLPLTFGGGTKVEIK | 0.01 | 0.534 | 0.01 |  |  |  |
| A42-23 (antibody, human IgG1, kappa, V domains shown) VH: QVQLQESGPGLVKPSETLSLTCTVSGGSITHNFWSWIRQPPGKGLEWIGYISGYDTYTDYNPSLKSRVTISVDTSKNQFSLKLSSVTAADTAVYYCARSHDYGHHDYAFDFWGQGTTVTVSS VL: DIQMTQSPSSLSASVGDRVTITCRATQDIHHSLNWYQQKPGKAPKLLIYYANRLQSGVPSRFSGSGSGTDFTLTISSLQPEDFATYYCQQYHYLPLTFGGGTKVEIKR |  |  |  | 0.0127 | 27.2 | 0.345 |
